The values below come from patent publication US20110318347A1.

Bounds are passed on as bounds.

Assay [1] has as its target human CXCR4 (human). Briefly: competition vs [125I]-CXCL12; potency relative to monovalent 238D2.
Assay [2] has as its target human CXCR4 (human). Put plainly: competition vs [125I]-CXCL12, membranes of HEK293T cells expressing CXCR4.
Assay [3] deals with human CXCR4 (human).
The target of assay [4] is human CXCR4 (human). Briefly: competition vs [125I]-CXCL12; potency relative to monovalent 238D4.
Assay [5] deals with human CXCR4 (human). Put plainly: competition with [125I]-CXCL12 on HEK293T-CXCR4 membranes.
The target in a further assay is CCR5 (UniProt P51681). Put plainly: cell-based or functional assay.
Assay [6] deals with human CXCR4 (human). Put plainly: cell-based or functional assay.
Assay [7] deals with human CXCR4 (human). Put plainly: competition vs [125I]-238D4 (3 nM), membranes of HEK293T cells expressing CXCR4; Table B-3 competition vs [125I]-238D4, up to 0.5 µM; bound only.
For assay [8], the target named is human CXCR4 (human). Briefly: competition vs [125I]-238D4 (3 nM), membranes of HEK293T cells expressing CXCR4; Table B-3 competition vs [125I]-238D4, at 0.5 µM: no displacement.
For assay [9], the target named is human CXCR4 (human). Put plainly: competition vs [125I]-238D2 (3 nM), membranes of HEK293T cells expressing CXCR4; Table B-3 competition vs [125I]-238D2, up to 0.5 µM; bound only.
The target in assay [10] is human CXCR4 (human). Put plainly: competition vs [125I]-CXCL12 (40 pM), membranes of HEK293T cells expressing CXCR4; Table B-3 competition vs [125I]-CXCL12, up to 0.5 µM; bound only.
For assay [11], the target named is human CXCR4 (human). Briefly: competition vs [125I]-238D2 (3 nM), membranes of HEK293T cells expressing CXCR4; Table B-3 competition vs [125I]-238D2, at 0.5 µM: no displacement.
Assay [12] deals with human CXCR4 (human). Put plainly: periplasmic fraction (1:10), displacement of [125I]-CXCL12, HEK293T-CXCR4 membranes; - = 0-29%, + = 30-69%, ++ = 70-100%; screening of clones (Table B-2): 30-69% displacement of [125I]-CXCL12, HEK293T-CXCR4 membranes.

Chain of CCR5 (P51681 whole entry): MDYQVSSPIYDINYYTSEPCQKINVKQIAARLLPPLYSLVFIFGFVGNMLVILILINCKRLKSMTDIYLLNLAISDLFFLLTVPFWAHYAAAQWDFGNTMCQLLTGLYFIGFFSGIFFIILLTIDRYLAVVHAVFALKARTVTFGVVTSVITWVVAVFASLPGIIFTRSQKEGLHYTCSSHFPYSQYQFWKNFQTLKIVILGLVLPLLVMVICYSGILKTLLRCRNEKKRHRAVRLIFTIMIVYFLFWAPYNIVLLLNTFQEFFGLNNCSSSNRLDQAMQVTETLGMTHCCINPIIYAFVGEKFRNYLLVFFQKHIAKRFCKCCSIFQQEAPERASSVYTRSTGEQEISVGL

B1: 238D2-20GS-238C5 (VHH)
chain: EVQLVESGGGLVQTGGSLRLSCAASGFTFSSYAMSWVRQAPGKGLEWVSGIKSSGDSTRYAGSVKGRFTISRDNAKNMLYLQMYSLKPEDTAVYYCAKSRVSRTGLYTYDNRGQGTQVTVSSGGGGSGGGGSGGGGSGGGGSEVQLMESGGGLVQAGGSLRLACAASGFTFEDYAIGWFRKAPGKEREGVSCISGSDGSTTYADSVKGRFTISTDNAKNTVYLEMNSLKPEDTAVYYCAQQYGVGGRVVCPGPYEYDVWGQGTQVTVSS
One may read the pKi as the Ki on a negative log10 scale, so that one unit is a factor of ten. A low value points to a high Ki. In the assay with human CXCR4 (human) [1], B1 had a Rel. potency of 0.18 fold. For the same molecule, in the assay with human CXCR4 (human) [2], the Displacem. (%) amounted to 110% and the pKi is 7.35.

B2: 238D2-15GS-238D4 (VHH)
chain: EVQLVESGGGLVQTGGSLRLSCAASGFTFSSYAMSWVRQAPGKGLEWVSGIKSSGDSTRYAGSVKGRFTISRDNAKNMLYLQMYSLKPEDTAVYYCAKSRVSRTGLYTYDNRGQGTQVTVSSGGGGSGGGGSGGGGSEVQLMESGGGLVQAGGSLRLSCAASGRTFNNYAMGWFRRAPGKEREFVAAITRSGVRSGVSAIYGDSVKDRFTISRDNAKNTLYLQMNSLKPEDTAVYTCAASAIGSGALRRFEYDYSGQGTQVTVSS
Consider B2, for which the IC50 (read off the curve), migration of Jurkat cells towards 0.3 nM CXCL12 with human CXCR4 (human) [3] worked out at 0.3 nM. This molecule also had a Rel. potency in the assay with human CXCR4 (human) [4] of 17 fold. Moreover, the Rel. potency with human CXCR4 (human) [1] stood at 28 fold. Also, the IC50 (read off the curve) with human CXCR4 (human) [5] was 0.5 nM. In the assay with CCR5, this molecule gave an Anti-HIV-1 activity (in nM), PBMC/BaL greater than 100 nM; an Anti-HIV-1 activity (in nM), U87.CD4.CCR5/BaL greater than 100 nM; an IC50, HIV-1 BaL, PBMC donor 1 greater than 1 µg/mL; an IC50, HIV-1 BaL, PBMC donor 2 greater than 1 µg/mL. Besides, in the assay with CCR5, the IC90, HIV-1 BaL, PBMC donor 1 was greater than 1 µg/mL; the IC90, HIV-1 BaL, PBMC donor 2 is greater than 1 µg/mL; the nM IC50, HIV-1 BAL, PBMC donor 1 was greater than 67 nM; the nM IC50, HIV-1 BAL, PBMC donor 2 was greater than 67 nM. In the assay with human CXCR4 (human) [6], the Anti-HIV-1 activity (in nM), MT-4/HE stood at 0.16 nM; the Anti-HIV-1 activity (in nM), MT-4/NL4.3 is 0.25 nM; the Anti-HIV-1 activity (in nM), PBMC/HE amounted to 1.5 nM; the Anti-HIV-1 activity (in nM), PBMC/NL4.3 is 0.5 nM. In the assay with human CXCR4 (human) [6], this molecule came in with an Anti-HIV-1 activity (in nM), U87.CD4.CXCR4/NL4.3 of 0.36 nM; a Chemotaxis, Jurkat/0.3 nM CXCL12, Imax (%) of 107%; a Chemotaxis, Jurkat/0.3 nM CXCL12, pKi or pIC50 of 9.86; an IC50, HIV-1 NL4.3, MT-4 cells, exp. 1 of 0.0166 µg/mL. Also, in the assay with human CXCR4 (human) [6], the IC50, HIV-1 NL4.3, PBMC donor 1 is 0.01 µg/mL; the IC50, HIV-1 NL4.3, PBMC donor 2 amounted to 0.0179 µg/mL; the IC50, HIV-1 UG270, PBMC donor 1 was 0.0212 µg/mL; the IC50, HIV-1 UG270, PBMC donor 2 came to 0.0894 µg/mL. In the assay with human CXCR4 (human) [6], this molecule yielded an IC90, HIV-1 NL4.3, MT-4 cells, exp. 1 of 0.0711 µg/mL; an IC90, HIV-1 NL4.3, PBMC donor 1 of 0.11 µg/mL; an IC90, HIV-1 NL4.3, PBMC donor 2 of 0.0341 µg/mL; an IC90, HIV-1 UG270, PBMC donor 1 of 0.0789 µg/mL. Also, in the assay with human CXCR4 (human) [6], the IC90, HIV-1 UG270, PBMC donor 2 worked out at 0.17 µg/mL; the nM IC50, HIV-1 NL4.3, PBMC donor 1 is 0.33 nM; the nM IC50, HIV-1 NL4.3, PBMC donor 2 stood at 0.6 nM; the nM IC50, HIV-1 UG270, PBMC donor 1 was 0.71 nM. This molecule also registered a nM IC50, HIV-1 UG270, PBMC donor 2 with human CXCR4 (human) [6] of 2.98 nM. In the assay with human CXCR4 (human) [2], the Displacem. (%) was found to be 92% and the negative logarithm of the Ki (pKi) came to 9.45.

B3: 238D4-20GS-238D4 (VHH)
chain: EVQLMESGGGLVQAGGSLRLSCAASGRTFNNYAMGWFRRAPGKEREFVAAITRSGVRSGVSAIYGDSVKDRFTISRDNAKNTLYLQMNSLKPEDTAVYTCAASAIGSGALRRFEYDYSGQGTQVTVSSGGGGSGGGGSGGGGSGGGGSEVQLMESGGGLVQAGGSLRLSCAASGRTFNNYAMGWFRRAPGKEREFVAAITRSGVRSGVSAIYGDSVKDRFTISRDNAKNTLYLQMNSLKPEDTAVYTCAASAIGSGALRRFEYDYSGQGTQVTVSS
On to B3, for which the Rel. potency with human CXCR4 (human) [4] is 4.4 fold. The molecule also had an IC50 (read off the curve) in the assay with human CXCR4 (human) [5] of 2 nM. In the assay with human CXCR4 (human) [2], this molecule came in with a Displacem. (%) of 96% and a pKi of 8.85.

B4: 238D2-10GS-238D2 (VHH)
chain: EVQLVESGGGLVQTGGSLRLSCAASGFTFSSYAMSWVRQAPGKGLEWVSGIKSSGDSTRYAGSVKGRFTISRDNAKNMLYLQMYSLKPEDTAVYYCAKSRVSRTGLYTYDNRGQGTQVTVSSGGGGSGGGGSEVQLVESGGGLVQTGGSLRLSCAASGFTFSSYAMSWVRQAPGKGLEWVSGIKSSGDSTRYAGSVKGRFTISRDNAKNMLYLQMYSLKPEDTAVYYCAKSRVSRTGLYTYDNRGQGTQVTVSS
B4: the Rel. potency with human CXCR4 (human) [1] stood at 14 fold. In the assay with human CXCR4 (human) [2], this molecule registered a Displacem. (%) of 95% and a pKi of 9.16.

B5: Nanobody 237D1 (VHH)
VHH: EVQLVESGGGLAQPGGPLRLTCEASGVIYSVNDMGWYRQAPGKQRELVAVITSGGGTNYVDSVKGRFTISGDNRKKTVYLQMNSLKPEDTAVYYCSIYYSSGISTLRSWGQGTQVTVSS
For the molecule B5, the negative-log Ki (pKi) with human CXCR4 (human) [7], in the assay with human CXCR4 (human) [9] and with human CXCR4 (human) [10] was less than 6.3 throughout. The Displacem. (%) with human CXCR4 (human) [8] and in the assay with human CXCR4 (human) [11] was 0% in each case. Besides, the percent inhibition of specific [125I]-CXCL12 binding in the assay with human CXCR4 (human) [12] was in the range of 30 to 69%.
